# Experimental data: paper doi:10.1101/2025.06.22.660944, “Structures of MmpL complexes reveal the assembly and mechanism of this family of transporters” (bioRxiv, 2025)
# T1: MmpL5 transporter (M. smegmatis, MSMEG_1382) (M. smegmatis, UniProt A0QS80 1-967)
# T1 construct: MmpL5, M. smegmatis, gene MSMEG_1382; 12 transmembrane helices and periplasmic subdomains PD1-PD3 (PD3 residues 499-684); Seen as a monomer (one chain per AcpM-MmpL5 unit in 2D arrays) and as a homotrimer (in AcpM-MmpL5-MmpS5 and trimeric AcpM-MmpL5) in the same sample; copies therefore left empty; also called mycobacterial membrane protein large 5; source: M. smegmatis MC2-155, co-expressed with …
# T1 sequence (looked up): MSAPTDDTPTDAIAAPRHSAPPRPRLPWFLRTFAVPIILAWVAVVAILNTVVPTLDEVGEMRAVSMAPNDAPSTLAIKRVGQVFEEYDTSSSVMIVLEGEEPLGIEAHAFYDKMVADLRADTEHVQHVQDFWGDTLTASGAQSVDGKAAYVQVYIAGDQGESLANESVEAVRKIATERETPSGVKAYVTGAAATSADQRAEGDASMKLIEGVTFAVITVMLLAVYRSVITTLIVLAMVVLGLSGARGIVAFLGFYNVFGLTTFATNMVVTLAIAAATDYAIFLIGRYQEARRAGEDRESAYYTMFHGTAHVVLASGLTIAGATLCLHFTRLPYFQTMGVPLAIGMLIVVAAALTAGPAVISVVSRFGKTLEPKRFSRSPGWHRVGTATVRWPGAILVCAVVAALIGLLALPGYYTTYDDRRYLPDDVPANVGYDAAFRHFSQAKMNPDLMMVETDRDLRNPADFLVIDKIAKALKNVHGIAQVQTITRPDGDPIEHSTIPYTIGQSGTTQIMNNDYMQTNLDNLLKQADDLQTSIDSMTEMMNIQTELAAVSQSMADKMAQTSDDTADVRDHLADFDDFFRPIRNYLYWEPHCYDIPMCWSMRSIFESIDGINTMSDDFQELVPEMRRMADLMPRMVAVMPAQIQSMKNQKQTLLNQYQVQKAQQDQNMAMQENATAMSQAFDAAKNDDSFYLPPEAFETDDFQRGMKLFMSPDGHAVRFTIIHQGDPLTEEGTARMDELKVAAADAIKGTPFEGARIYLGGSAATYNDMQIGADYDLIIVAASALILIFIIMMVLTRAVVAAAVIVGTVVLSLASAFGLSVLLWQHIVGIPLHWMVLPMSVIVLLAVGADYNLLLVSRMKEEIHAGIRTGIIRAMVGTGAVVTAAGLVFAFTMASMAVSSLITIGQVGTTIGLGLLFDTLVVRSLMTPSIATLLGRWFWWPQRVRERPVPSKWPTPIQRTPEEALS
# B1: meromycolate extension acyl carrier protein M (AcpM) (natural protein, UniProt A0R0B3 1-99, looked up)
# chain: MAATQEEIIAGLAEIIEEVTGIEPSEVTPEKSFVDDLDIDSLSMVEIAVQTEDKYGVKIPDEDLAGLRTVGDVVAYIQKLEEENPEAAAALREKFAADQ
# notes: AcpM, meromycolate extension acyl carrier protein M, of the M. smegmatis host; identified from the cryo-EM map (manual building, DeepTracer) and confirmed by proteomics; Not overexpressed; came along with MmpL5 from the host cells; source: endogenous, M. smegmatis MC2-155; found in the detergent-solubilized crude membranes enriched by sucrose cushion centrifugation
# How the values were obtained:
# [1] = biological target: MmpL5 transporter (M. smegmatis, MSMEG_1382) (M. smegmatis) (UniProt A0QS80); assay: cryo-EM structure; particle class 3: dipartite AcpM-MmpL5 trimeric complex, 3.37 Å; same LMNG-solubilized crude membrane sample, Build and Retrieve processing
# [2] = biological target: MmpL5 transporter (M. smegmatis, MSMEG_1382) (M. smegmatis) (UniProt A0QS80); assay: cryo-EM structure; particle class 2: tripartite AcpM-MmpL5-MmpS5 trimeric complex, 2.81 Å; same LMNG-solubilized crude membrane sample, Build and Retrieve processing
# [3] = biological target: T1, MmpL5 transporter (M. smegmatis, …); assay: cryo-EM structure; particle class 1: AcpM-MmpL5 monomeric units in 2D arrays, 3.35 Å; LMNG-solubilized crude M. smegmatis membranes enriched by sucrose cushion, Build and Retrieve processing; settings: partners not purified
# [4] = biological target: T1, MmpL5 transporter (M. smegmatis, …); assay: cryo-EM structure; particle class 2: tripartite AcpM-MmpL5-MmpS5 trimeric complex, 2.81 Å; same LMNG-solubilized crude membrane sample, Build and Retrieve processing; settings: partners not purified
molecule,measurement,setting,value
"MmpL5 transporter (M. smegmatis, MSMEG_1382) (from UniProt A0QS80 1-967) (natural protein)",stoichiometry N,[1],3
same,stoichiometry N,[2],3
"MmpS5 adaptor (M. smegmatis, MSMEG_1381) (natural protein)",stoichiometry N (MmpS5 per MmpL5 (3:3)),[2],1
B1,stoichiometry N,[3],1 AcpM per MmpL5 (1:1)
same,stoichiometry N,[4],1 AcpM per MmpL5 (3:3)
